# Data reported in the Human Domainome abundance scans (Beltran et al. 2025).
# ± gives the uncertainty stated by the source.
# B1: Apoptosis-associated speck-like protein containing a CARD, residues 114 to 194; numbered along this chain, Q9ULZ3 (parent)
# chain: FIDQHRAALIARVTNVEWLLDALYGKVLTDEQYQAVRAEPTNPSKMRKLFSFTPAWNWTCKDLLLQALRESQSYLVEDLER
# Variants of: B1
# Experiment: abundance fitness (aPCA) (normalised: wild type 0, dead -1); higher = more abundant; growth selection in yeast, the domain comes from the species named
# Settings: Homo sapiens
row,Variant,abundance fitness
1,K45C,-0.887 ± 0.16
2,K45V,-0.609 ± 0.073
3,K45Q,-0.695 ± 0.19
4,R6I,-0.389 ± 0.14
5,V13W,-0.893 ± 0.12
6,V13P,-0.396 ± 0.12
7,F50W,-0.693 ± 0.097
8,E17V,-0.985 ± 0.12
9,E17H,-0.695 ± 0.17
10,E17W,-0.642 ± 0.12
11,Y24A,-0.254 ± 0.056
12,Y24H,0.067 ± 0.077
13,N42M,-0.48 ± 0.096
14,W56G,-0.838 ± 0.097
15,W56L,-0.568 ± 0.061
16,E77L,-0.428 ± 0.08
17,E77P,-0.66 ± 0.14
18,E77V,-0.658 ± 0.08
19,E77M,-0.244 ± 0.14
20,R12I,-0.803 ± 0.38
21,R12Y,-0.484 ± 0.13
22,R12E,-0.316 ± 0.07
23,R12D,-0.666 ± 0.26
24,S71K,-0.538 ± 0.2

row,Variant,abundance fitness
1,S71M,-0.526 ± 0.12
2,S71Q,-0.251 ± 0.1
3,A7I,-0.638 ± 0.3
4,N15P,-0.806 ± 0.14
5,N15K,-0.041 ± 0.09
6,T53F,-0.342 ± 0.15
7,T53C,-0.347 ± 0.083
8,A8V,-0.424 ± 0.11
9,A8L,-0.79 ± 0.13
10,A35T,-0.348 ± 0.074
11,A35P,-0.664 ± 0.12
12,A35Q,-0.011 ± 0.076
13,A35S,-0.08 ± 0.052
14,L9F,-0.763 ± 0.2
15,L9I,-0.429 ± 0.12
16,L9S,-0.938 ± 0.15
17,L9M,-0.563 ± 0.14
18,L68N,-0.54 ± 0.5
19,T29S,-0.208 ± 0.35
20,T29D,-0.626 ± 0.39
21,H5P,-0.741 ± 0.13
22,R69C,-0.367 ± 0.13
23,R69P,-0.753 ± 0.12
24,R69E,-0.29 ± 0.13

row,Variant,abundance fitness
1,R69D,-0.859 ± 0.4
2,A67S,-0.544 ± 0.086
3,A67T,-0.452 ± 0.12
4,L19A,-0.319 ± 0.062
5,K48I,-0.779 ± 0.32
6,K48M,-0.221 ± 0.079
7,V16I,-0.464 ± 0.12
8,V16A,-0.794 ± 0.1
9,V16Q,-0.865 ± 0.15
10,G25P,0.191 ± 0.053
11,G25W,-0.325 ± 0.077
12,G25L,-0.45 ± 0.058
13,Q34G,-0.599 ± 0.061
14,Q34E,-0.052 ± 0.081
15,Q34K,-0.143 ± 0.13
16,Q72L,-0.633 ± 0.077
17,Q72G,-0.627 ± 0.066
18,P40D,-0.38 ± 0.16
19,P43Y,-0.593 ± 0.13
20,P43N,-0.241 ± 0.11
21,A38K,-0.088 ± 0.074
22,A38L,-0.176 ± 0.05
23,S73W,-0.302 ± 0.077
24,S73H,-0.144 ± 0.16

row,Variant,abundance fitness
1,S73T,-0.048 ± 0.081
2,F1C,-1.04 ± 0.38
3,F1S,-0.385 ± 0.21
4,S51K,-0.96 ± 0.16
5,S51Q,-0.205 ± 0.08
6,L20I,-0.179 ± 0.094
7,N57W,-0.468 ± 0.086
8,N57L,-0.178 ± 0.056
9,N57R,-0.731 ± 0.074
10,E70M,-0.46 ± 0.11
11,L23C,-0.444 ± 0.14
12,L23R,-0.83 ± 0.088
13,L23S,-0.879 ± 0.13
14,C60M,0.122 ± 0.066
15,C60L,-0.456 ± 0.059
16,Q66T,-0.323 ± 0.081
17,Q66R,-0.026 ± 0.045
18,Q66E,-0.148 ± 0.079
19,T41K,-0.755 ± 0.18
20,L65D,-0.563 ± 0.099
21,F52A,-0.732 ± 0.092
22,F52R,-0.824 ± 0.096
23,F52Q,-0.427 ± 0.16
24,F52S,-0.948 ± 0.12

row,Variant,abundance fitness
1,Y74T,0.138 ± 0.07
2,Y74D,0.21 ± 0.09
3,Y74E,0.249 ± 0.11
4,L64E,-0.944 ± 0.16
5,L64T,-0.513 ± 0.09
6,L64S,-0.853 ± 0.1
7,L64A,-0.343 ± 0.065
8,L64C,-0.481 ± 0.15
9,L64P,-1.02 ± 0.21
10,L64K,-0.918 ± 0.2
11,V76C,-0.497 ± 0.15
12,D78S,-0.119 ± 0.041
13,L28Y,-0.783 ± 0.25
14,L63C,-0.44 ± 0.11
15,L63H,-0.425 ± 0.16
16,L63T,-0.325 ± 0.076
17,L63F,-0.381 ± 0.073
18,L63A,-0.185 ± 0.053
19,L63E,-0.31 ± 0.1
20,L63I,-0.359 ± 0.2
21,V36H,-0.819 ± 0.28
22,V36F,-0.548 ± 0.12
23,Q4M,-0.161 ± 0.079
24,Q4P,-1.03 ± 0.18

row,Variant,abundance fitness
1,M46D,-1.03 ± 0.32
2,K26G,-0.513 ± 0.062
3,K26C,-0.262 ± 0.094
4,A22D,-0.302 ± 0.21
5,W58N,0.105 ± 0.26
6,W58A,0.357 ± 0.063
7,W58T,0.319 ± 0.059
8,S44D,0.091 ± 0.085
9,A55T,-0.061 ± 0.084
10,A55P,-0.325 ± 0.073
11,P54G,-0.017 ± 0.044
12,P54E,0.078 ± 0.073
13,P54K,0.047 ± 0.088
14,Y33Q,-0.546 ± 0.13
15,Y33K,-0.342 ± 0.15
16,Y33V,0.136 ± 0.047
17,D62W,-0.609 ± 0.13
18,D62Q,-0.037 ± 0.11
19,D62F,-0.195 ± 0.12
20,D62A,-0.083 ± 0.066
21,E31G,-0.469 ± 0.048
22,E31C,-0.832 ± 0.21
23,E31M,-0.693 ± 0.13
24,R37M,0.136 ± 0.073

row,Variant,abundance fitness
1,R37N,-0.1 ± 0.21
2,D3R,-0.544 ± 0.095
3,D3N,-0.599 ± 0.12
4,D3C,-0.822 ± 0.23
5,D3W,-0.582 ± 0.13
6,I10F,-0.84 ± 0.17
7,I10E,-0.594 ± 0.066
8,I10Q,-0.655 ± 0.15
9,I10G,-0.74 ± 0.076
10,I10C,-0.628 ± 0.16
11,L75D,-0.819 ± 0.28
12,L75P,-0.695 ± 0.1
13,L79E,-0.774 ± 0.18
14,L79Y,-0.886 ± 0.18
15,L79K,-0.857 ± 0.2
16,K61D,-0.534 ± 0.19
17,K61G,-0.601 ± 0.064
18,K61R,-0.437 ± 0.058
19,K61C,-0.379 ± 0.089
20,D21G,-0.331 ± 0.047
21,T14R,-0.209 ± 0.053
22,T14Q,-0.252 ± 0.12
23,T14I,-0.541 ± 0.17
